A short description of the data set: label from the status in PepcDB records.
On to “MHEIYIYLGIMFMPTYKHSHTPSHDIEDDEDEGTEHLVDELRTNAGAFEEEALVEKLLENLDLDEVEEDEHDAANASFFDSLHFSSIFVLQKREGENESF”, for which the protein production entry is given as “failed”.
Turning to “MHEKVPKKTYDSELYNGYLAIYNGYGDLRYFTVKIENDICVSLVWNTGMTKKSRGKKRIRINVYRPKIAPAKNKKPKPTKEQLMDPEFSDEDVLTSLGFDDGGYIIPLPKKSLMLINLPDSFRDELQTMHVSFYLREVGKLMFG”, the protein production entry is “failed”.
Consider “MHFCFISSISKIIDRYEIQHADELRALDLEEKIQNYLPHKELLETVQRLAVRHIFLPSSSDKKNVFFLLSTCEYSKLEEPNVDNVSVDSLISLEEQLETALSVSRARKAELMMEYIESLKEKVSALVFIFDKGHILGYDDS”, for which the protein production entry was “failed”.
Turning to “MHGKDPFSDFREFINTMESRVQELGKAYGVEHLAGPQGFAVRYLFENQDKEIFIKDIEKKLSISKSVASNLVKRMEKNGFVELVTSDKDKRYKYVHLTDLGKKKAQDVGHFREAIHGQLLDGISKEDAETAFRVFHQIRKNLEKNKELEHHHHHH”, the protein production entry is reported as “not failed”.
Under “MHGSQKDTTFTKIFVGGLPYHTTDASLRKYFEGFGDIEEAVVITDRQTGKSRGYGFVTMADRAAAERACKDPNPIIDGRKANVNLAYLGAKPRSLQTGFAIGV” stands “not failed”; under “MHHQQRMAALGTDKELSDLLDFSAMFSPPVSSGKNGPTSLASGHFTGSNVEDRSSSGSWGNGGHPSPSRNYGDGTPYDHMTSRDLGSHDNLSPPFVNSRIQSKTERGSYSSYGRESNLQGCHQQSLLGGDMDMGNPGTLSPTKPGSQYYQYSSNNPRRRPLHSSAMEVQTKKVRKVPPGLPSSVYAPSASTADYNRDSPGYPSSKPATSTFPSSFFMQDGHHSSDPWSSSSGMNQPGYAGMLGNSSHIPQSSSYCSLHPHERLSYPSHSSADINSSLPPMSTFHRSGTNHYSTSSCTPPANGTDSIMANRGSGAAGSSQTGDALGKALASIYSPDHTNNSFSSNPSTPVGSPPSLSAGTAVWSRNGGQASSSPNYEGPLHSLQSRIEDRLERLDDAIHVLRNHAVGPSTAMPGGHGDMHGIIGPSHNGAMGGLGSGYGTGLLSANRHSLMVGTHREDGVALRGSHSLLPNQVPVPQLPVQSATSPDLNPPQDPYRGMPPGLQGQSVSSGSSEIKSDDEGDENLQDTKSSEDKKLDDDKKDIKSITSNNDDEDLTPEQKAEREKERRMANNARERLRVRDINEAFKELGRMVQLHLKSDKPQTKLLILHQAVAVILSLEQQVRERNLNPKAACLKRREEEKVSSEPPPLSLAGPHPGMGDASNHMGQM”, “failed”; under “MHIAIIGAAGMVGRKLTQRLVKDGSLGGKPVEKFTLIDVFQPEAPAGFSGAVDARAADLSAPGEAEKLVEARPDVIFHLAAIVSGEAELDFDKGYRINLDGTRYLFDAIRIANGKDGYKPRVVFTSSIAVFGAPLPYPIPDEFHTTPLTSYGTQKAICELLLSDYSRRGFFDGIGIRLPTICIRPGKPNAAASGFFSNILREPLVGQEAVLPVPESIRHWHASPRSAVGFLIHGAMIDVEKVGPRRNLSMPGLSATVGEQIEALRKVAGEKAVALIRREPNEMIMRMCEGWAPGFEAKRARELGFTAESSFEEIIQVHIEDELGGSLK”, “not failed”.
Regarding “MHILSMIKSQLKLLFNNRLAVFAIILAPILLTFLVSYSSSSNSKTNVYFADQDNTEASRQLVNMLKNNHDLNLISSSESEIKNKVDDDNITVGVLINKGFGYKLQNNKALDITLIEDYDSVDGEKLSDIILSTENTLQKVNLDSKSISRVLSSNESSISNKIIKKINNGSGVKLLYKNLKSSQNVEDKNAQNLIGFLLMFLWFIVIQGFRTLIEEKENNTFNRIKGTPTNYSKYLLSKIIANYIFGMIIIAIILIVGKYGLKSKIINNVGPEIAILSIYLFSIVGLVMIFVPFVKKHQTFTIIGAAIMVLTGLLGGSFFSMDELQLPKAIEIISKFMPETWGIKSLKEVVFNNLSLGSQSQTILVLGIAGIVGLLISTIIVKIIDRTEKNF”, the protein production entry was “failed”.
The entry for “MHILVTGFAPFDNQNINPSWEAVTQLEDIIGTHTIDKLKLPTSFKKVDNIINKTLASNHYDVVLAIGQAGGRNAITPERVAINIDDARIPDNDDFQPIDQAIHLDGAPAYFSNLPVKAMTQSIINQGLPGALSNSAGTFVCNHTLYHLGYLQDKHYPHLRFGFIHVPYIPEQVIGKPDTPSMPLEKIVAGLTAAIEAISNDEDLHLALGTTE” is “failed”; for “MHIPENLYVVGTMNIADRSLALVDLALRRRFAFVGLEPRLGQVWRDWVVKECAVDPGLVADIERRIAELNDQIAADARLGKQFRIGHSYVTPAHRLEAGDTKKWFLQVVETEIGPLLDEYWFDAPDEAQKAIARLTQGLEHHHHHH” it is “failed”.
Regarding “MHLAYPAVLSALLFCTGLYGVLARRNAILVLMSVELMLNAVNLNLVAFDVWLSRAAEETLHSGQALTLFTIAIAAAEIGIGLAIVLAVHRNRGTSDIDKLRDTAEGHEPDGPDTDTPATGTAAEKAEATA”, the protein production entry is on record as “failed”.
“MHLDPDACYHAVQSRDRRFDGWFFVGVTSTGVYCRPICAVRTPLQKNCRFFASAAAAEKAGFRPCLRCRPELAPGHSLAEMSSSLARAAARMIDEGFLQQHDLAALAAAVGVTDRHLRRIFRAEFDVSPIEYAQTQRLLLAKRLLTDTAMPVGDVAYAAGFGSVRRLNSGFAEHYGFAPTRLRTRAAPVSRGDDGATLMLGYRPPFAWHALLDFLRARAVDGVEVVDAHSYARTIALDYAGRRHAGWLRARDVPQRHAIALTLSASLVQAMPPVLARVRRLFDLDCRPDLVDTHLGTLAAGTPGLRVPGAVDGFEIAVRAIAGQVVSLARARRILARLAAAYGTPLAQPRAGLPTAFPSATALASVDPQALSGETGLQASRAAAMVEIARAIDAGRLRLEPLVPLAPTLAALQALSGIGEWTAQYIAMRALGWPNAFPLGDYVLRKRLADHDGTLPTRHAMATRAEDWAPWRAYAAMHLWHRDDAQAPTP”: the protein production result is reported as “failed”.
Under “MHLETNMAGHSIPHFQNDGGHSVIEIGVKEFMCTGASVPFDHPHIFIDMGDDNEKVCSYCSTLYRYNPSLKAEQTNPPGCVFHVKAALEHHHHHH” stands “not failed”.
Under “MHLKEKITTIIQGQRTGVLSTVRNDKPHSAFMMFFHEDFVLYVATDRQSKKITDIENNPNVHVLLGREGKKLDEDYIEVEGLASIEEDSTLKNKFWNNSLKRWLLRPEDPNYVLIKINPDTIYYIDGAGTTEPEFLRL” stands “not failed”; under “MHLNTLAGRSYNDLMQYPVFPWILADYDSEEVDLTNPKTFRNLAKPMGAQTDERLAQYKKRYKDWEDPNGETPAYHYGTHYSSAMIVASYLVRMEPFTQIFLRLQGGHFDLADRMFHSVREAWYSASKHNMADVKELIPEFFYLPEFLFNSNNFDLGCKQNGTKLGDVILPPWAKGDPREFIRVHREALECDYVSAHLHEWIDLIFGYKQQGPAAVEAVNVFHHLFYEGQVDIYNINDPLKETATIGFINNFGQIPKQLFKKPHPPKRVRSRLNGDNAGISVLPGSTSDKIFFHHLDNLRPSLTPVKELKEPVGQIVCTDKGILAVEQNKVLIPPTWNKTFAWGYADLSCRLGTYESDKAMTVYECLSEWGQILCAICPNPKLVITGGTSTVVCVWEMGTSKEKAKTVTLKQALLGHTDTVTCATASLAYHIIVSGSRDRTCIIWDLNKLSFLTQLRGHRAPVSALCINELTGDIVSCAGTYIHVWSINGNPIVSVNTFTGRSQQIICCCMSEMNEWDTQNVIVTGHSDGVVRFWRMEFLQVPETPAPEPAEVLEMQGPLSHPHPNPIEVRNYSRLKPGYRWERQLVFRSKPTMHTAFDRKDNAHPAEVTALGISKDHSRILVGDSRGRVFSWSVSDQPGRSAADHWVKDEGGDSCSGCSVRFSLTERRHHCRNCGQLFCQKCSRFQSEIKRLKISSPVRVCQNCYYNLQHERGSEDGPRNC”, “failed”.
In the case of “MHMKTVRQERLKSIVRILERSKEPVSGAQLAEELSVSRQVIVQDIAYLRSLGYNIVATPRGYVLAGGKSGVSRLVAVKHAPEEIKEELLCVVRNGGRIVDVIVEHPVYGEIRGIIDVSSEEEVLKFVNLMEMAKTEPLLTLSGGVHLHTIEAPDEETMERIMRELKKKGFLIEEG”, the protein production entry is reported as “not failed”.

The values above are taken from a protein production outcome set (Wang et al. 2014).
